16 sequences from a protein production outcome set (Wang et al. 2014) can be followed below.

This series can be described thus: label from the status in PepcDB records.
For the sequence “MTDIPAPAPAAEFWEARYRDTGRVWSGRPNELLVQEAGGLAPGTALDLGCGEGADAVWLASRGWRVTGVDISATALERAAGHADGAGVGDRVLWERHELGPSFPEGSFDLVSAHYLQSPVALDQQAVLRAAARAVAPGGTLLVVMHAGWPSWQTEPPFDAAFPTLDGVLAELALPEGEWSVETRRTARRPSVAPDGTEGFREDHVWRLKRAVFVE”, the protein production entry is reported as “failed”.

For the sequence “MTDKRGNNGKTGLLFPAIFTIFVSIYAAGNYYVGLRFFQSIQSLIEPYSLFYWSGYAFLVISLFAGRLGKRFYPGYVNDLFAVTGNYWVGAVYYSLLIWAGIDVLHFLTSLIFPATRIIKYPSFYFGLAVLLLVFLLLLYGTWNARHPRIVHYDITIKKSVPDLPELHAVMVSDIHLGLVVDKDRLKEMVNRINELDPDVVFLAGDTIDEDVRLFASNKMPEILKKLKSRYGVYAVLGNHEYIGGNNELAVEYLQQAGIHVLVDKCIKVNNHFYVAGRDDRVAGRMNGKKRLELSRLVDGIDHTLPIILLDHQPINLKEGQLNGIDLQLSGHTHAGQFFPNTLISKRVFENSWGYLKKGECQIIVSAGFGTWGPPIRIGSNSEITDIKISFV”, the protein production result is recorded as “failed”. With “MTDLEHAVESNRRAWDASADSHLRGGGWQELSLAVQETGFSCLDETLAGVLRNLDLAGKAAVQVGCNNGREVLSLYAFGVARAVGIDQSAAFLAQARQLAERSPHQPRFVEANAYELPAELNGQFDLLLITIGVLNWMPDIARFFASVSGLLKPGGQLAIYETHPFLEMLEPESERPFELRNDYFTDTPHVSREAIVYEGSGSDTGIASYWYVHPLGDILGGLLGAGLRLSHFKEYPHSNREELYDLYEDGPLAIPMCYTLVAVKA”, the protein production entry is “failed”.

As to “MTDLIYNDPDFVQFYDIENQDGRADFDYCVRLARDGGSVLDLGCGTGQLAAEMAQGCNVTGVDPASAMLDVARRRTGGDKVDWVVADARTVRLGRRFDLVLLTGHVFQVFLTDEDQRAVLRTIAEHLGPGGRFIFDTRNPAVEAWLEWTPQRSERMVEHPSLGTVRAWYDADWDAASAVVTYSTFYEIPGGRPILGAESKIAFPKKQDLAGMLDDAGLLVEQWLGDWQGEPYADTSPEIIPIGRLR”, the protein production result was “failed”. For “MTDNSQFHAASALVQAAHTVSVVGHLRPDADAIGSVAATVAALQQLGKDAVGAIGQLDSMPENLYTIPGASNIKFGDSLPESDLIIVVDCGSIERTGAFESIIVNNPDKVLVVDHHATNPGFGAVNLIDVEAESTTTILYDWFDAMSVQITPDIAHGLYAGLLTDTGCFRWGRPVMHDMAKELMEFGLDIRAISSALLDQTSVDDLRLVGQIVSRIELREAGPYTLAVLVADFDTINGRSRAVVEGLIEMVRAVEGADFGAVFKEYERGVYTVSLRSSNLSVASLAVHLGGGGHIPAAGYTARGTEIEALDTLIEATVTLGESLRSSAHVDVLEHHHHHH”, the protein production result is “not failed”.

Consider “MTDPADRPLIERIRACRLCADRFAATHTAHEPRPVVWFRPGARLLIAGQAPGARVHASGRPFTDPSGDRLRDWLGIGEETFYDRSRVAVVPMAFCFPGYNSQGADLPPPPVCGKTWHNQVMGELGEMPLSVLVGGHALKYHLGARSPVTETVAAWRDHAPRVFALPHPSWRNTGWLRKNPWFEAELLPVLRARVKEVLNEPDRSANPD”, for which the protein production entry is “failed”. As for “MTDPEKLTALKKAYAETILNTAKEAAARVMITERKARGYQQELASVRDEALRACLRLKQIYDSKVKEAEMISLQKQQKIEELEAQLGEAEDIVGELRTELRESRYLLEKLANGCQTNLSKEEKAPNEAVSLEVREDSSNHERSVVASVIKPHMSDRDLSINRCSYKENKDPCLYTLPSILSRCREAEVVERNTINGDCADVESLTEARKEEAKENDIELSTTPLSPSEKQCIKFSYKRKHNKDGSNSPEGGGSSSQDDDDDDESRSRRHKTGEKDNAYLDSFTSTEPSRDSRRVAQVARQVSESR”, the protein production entry is recorded as “failed”. “MTDPLIPVDTYLVDSLPEVWFGAVVFALGMYIVLDGFDFGIGMLYATRTDEHERETFLAAFGPVWDANEVWIVAFGTMLLAAFPRVYSRLLADNYLLALGFVVALVFRGLGPELREQREDERWKRYTDYAFVGGSVFAPLLLGMLAGRWLFAGATLPVVLTGVGLVAVSIVTGAAFLAAKTDSGLASELRSYGVGATVAYLGGVVVLLGTVVATDAGGAASAVLSLPVAAVVALSIVAGLGGSVLARRGRYRAWLASALALPTLLTLLVAVLLYPTVYPPTGLLVREAVVSPLALNLVTVLGFPVLLLVLWYFKFLYGVFSGPIEGEGYGG”: the protein production result was “failed”. With “MTDQAVDTGGSQLPGNEQRPAAAPAPTVSQFLGRTRELKELRADIERAGLDTLSGRKAPRARVLLIAGRPGSGRTALAEELVRQVADRYRDGVLRARLTEPDGTPVPTERTARELLAALEVATPPGAAEDDLTEALREALADRRTLLLLDDVAAAEQVDALLPGTPDCLVVAVSEGPLTGIADVRPCTLGGLDTKSALELLGRLTGAVRITVDPRAAEGLVEECAGQPLALVLAGSWLAARPQAAVADLAKQLRSEGDEGPPTARLFRLAYAGLPATAQRILRLLSLAPAGLVDPHTASALAGCSVSAAHTTLDDFAALGLVRLLESPLPQYEVPGSLLPLLRALAESRERPAELQLARARMLERTVRLLQSCRAITETDSIEAREKLLGMPRTLRFPNPRAAADWLRVRQPALLAAARSAVADGELDTLARRLMSQLVRAMVAHFGTQASAPELYGIHRLVLDVAERRNLPREQAAALLNLADLDTRTGRTTEALARYRAALDAGREANDPYATGRAMESVGGAHQELGDYDRAADWYGRALAQRLARDERVDAARLYGRIATAHTYAGRYGEALRNWRSAVAGHRKNGDVAAQARALSELARVQEYAGRPEESLRTCQEAVEWARRADDVRLQAALQLRLADTLEHLGDPAAAKLHRGAAERMLGEELLESDSGAEQAPNACEIRSASSKD”, the protein production result was “failed”.

In the case of “MTDSKYISIKGARVNNLKNIDVNIPRNKLVVITGLSGSGKSSLAFDTLYAEGQRRYVESLSSYARQFLGRMSKPECDFIKGIPPAIAIEQKVNSRNPRSTVGTSTEIYEYLRLLYARVGKTYSPVSGEEVKKHSIEDIVNCMLSYPEGTRYTVLTQIYLHDGRTLEQQLEIDRKQGFNRLEVNGEMVRIDEYAAGKEDVVYLLVDRMTAAKSKDAISRLTDSAETAMYEGDGMCMLRFYQPDGTTRLHTFSTKFEADGMTFEEPNDQMFSFNSPIGACPVCEGFGKVIGIDEHLVVPNRSLSVYDGAIVCWRGEKMGEWREELIHNAEKFNFPIFTPYYELTDEQRRVLWEGNQYFHGINDFFKMLEENQYKIQYRVMLARYRGKTLCPKCHGTRLKPEAGYVRVGGKNISELVDLPITELQKFFDSLTLNEHDQAVARRILTEINSRIRFLIDVGLGYLTLNRLSNSLSGGESQRINLATSLGSSLVGSLYILDEPSIGLHSRDTDRLVHVLRQLQQLGNTVVVVEHDEEIIRAADYIIDIGPNAGRLGGQVVYEGDMKDLKKGSNSYTVKYLLGEETIPVPEHRRPWNNYIEIKGARENNLKGVDARFPLNVMTVVTGVSGSGKSTLVRDIFYRALKRELDECSERPGEFVSIEGDLRNLRNVEFVDQNPIGKSSRSNPVTYIKAYDEIRKLWADQPLAKQMGYTAGHFSFNNEGGRCEECKGDGTITVEMQFMADLVLECESCHGKRFKADTLEVKFQDKNIYDILEMTVNQAIEFFTEHGQKKVVKKLIPLQDVGLGYIKLGQSSSTLSGGENQRVKLAYYLSQEKADPTLFIFDEPTTGLHFHDIRKLLDAFDALIRRGHSIVIIEHNMDVIKCADYVIDLGPEGGDKGGNIVATGTPEEVAACAASYTGQFLQEKLNHL”, the protein production entry is given as “failed”. The value for “MTDTHTCLTAKDFTSNQEPKWCPGCGDFMVLQQLKNAMAELCLKTEEVVVVSGIGCSSRLPYYINTYGVHGIHGRAMAMASGLKVARPDLSVWVGTGDGDALSIGGNHYIHTVRRNLDINVVLFNNEIYGLTKGQYSPTSKVGLRTVTSPTGVVDYPINTIALTLGAGGTFVARVMDRDGKLMKEIFKRAHNHKGTSIVEIYQNCPIFNDGAFRAFSDKERKDDTTLYLEQGQPLVFGANGSKGIYLDGFKPTVIDLEKSGVSKDDLWIHDENDLIKANILSRFFDDPNSTEEFLPRPFGIFYVEDRFTYEQALSAQIDKAQEKGEGTLEELLAGNSTWTIN” was “failed”; that for “MTDTTAEPSRPSGRLWAYLWQLHAETKAYLTLDAPAIASNIDSLSESEQQLAREVFPDGGQSTADSDGGSATDAGSRGGDDSSPFDVGGSYSLRQKIGLVLGPLLFAALLFSPTPDGLPAEGQAVAAVTAWVAVWWMSEAIPIPAASLLPIVLFPLAGALPVEPTATSYGHPLVFLFMGGFFLAMAMQRWGLHRRIALRTIKLVGTEPSRLILGFMLATAILSMWVSNSATVMMMVPIALAVIYQTADLIDDSDVDIDTGVGEFSFGIALMLCIAYGASVGGVATLIGTPPNILFAGQAEALFGQSVSFAEWMLYGVPIAALGLVTVYIYVTRIAMTPQFDSLPAGTETIDRELAELGSMSQQEKLVAVVFVGMAAAWIGASLIEPVLDITPPDDADTIVAIGGALVLFTFPTTGENGDQTFLLDWSSAVEIPWGVILLFGGGLAIAAGFSETGLAVWIGEQLQLLEGVQMAAILLAVVVMTIFLTEVTSNTATTAMLMPILGAVAIGISVHPFGLMIAGATAASFAFMLPVATPPNAIVFGSGYITLPQMARVGVGLNVIGIVLITLLALVWLPIAWGIELATLPAEFADAFDS” was “failed”; that for “MTDVFKDMAFQLKTERLDLNMWEESDAVWLRKLIGERGVEMPTIESVRSSLIEMRKKAIENGISLLTIRRRDEGDFIGYCGLIIGRATLEEPEIAYELFKSAHRKGYATEAASAVLEAAIATGRHRLWSTVGAWNTASFRVLEKLGFHRHHSTYGERGEIVWNVRDL” was “failed”. The value for “MTEAATFHLEMTRQIRAPRERVFDAFTDQAALAAWHCPRGMRVLEASADARVGGRYRLVMGSRDGSQHMVGGEYQKIDRANFLAYTWQWEGGELPEGTRTLIEVTLTDKDGGTLLHMRHSGFPDTATRDAHTSGWQSVFNRLSDYVDAEGSAGTVTVYGDGRSTYVRTVRMALAEKGIAYKLDPLTPRDPELLKHNPFGRIPAFTDGPLEFFETRAILSYIEEAFDGPSLISQAGPTARARCEQWISLINCHAYDAMVRRYVLQYVFPSGENGQPDRKTIDAALPDIAKQLDALEHAYGGRDFLAGNTLTMADLFFAPIVEYLGRFPESAAMLESRPNIRRAHAAMRARPSYAATQPNFG” was “failed”. With “MTEDTADSGTGGRGPTRRHLVRRALALGGALAVAPFPAGPAKAVPPPRHPHRTLRHGSPERAGLLPDHLRGLVTDAESFLGPSPTHPWYAGAVLLAGRGDTVALHQPIGTAVRYSAYDAKTDTGVEFPAERQIPMATDTVFDLASVSKLFTSLLAVQQLERGALELEARVASYLPDFAGAGKQDVTIRQLLTHTSGFRAWLPLYKAPSRAEKLRLIWNEAPLSPPGTKYLYSDLNLISLQLVLEEITGHPLDALLRDEITAPLGLRSTRYNPPAAWKPRIAATEDARPPWSGLDRGLVWGEVHDENAFGFGGVAGHAGVFSCAWDLAVLGRTLLNGGTYGHTRILAPESVELLFTDFNTAFPGDEHGLGFELYQHWYMGAMATPRTAGHTGFTGTSLVLDPTTDSFLIVLGNSVHPVRTWRSGSAPRAAAGNHLARAVQVRPARGRTSWFSGMATAASATLTLPELDTAGTADTAETTGTADSTTADSGGRLRCALWWDTEPRSDTLFLEASADDGASWQPVPFTTACDGEEAREHPTGSVTGWSGRVWHRLHADLPRARRLTLRWRYTTDRLYVGRGAYVDAVRVESGGRVLFDEARPTDAARIEAAGWTPSEN” the entry was “failed”; with “MTEHRPAIELEEIPTLLERIEGYKGRSRLTQLAIKLNLLIFIRSSELRFARWSEIDFKSGLWVIPEQREAIKGIKHSDRGAKMRRKHYVPLCEQALVILGELKDLTYDVNGDDGFILTGCYDAMKPMSENTINKALRKMGYDTKTDLCGHGFRTLACSALIESGIWPEDVVELQMSHMEKNNVRAAYTHKAKHLEQRRLMLQWWADFLDANGSGMVRPFEFAQGATQYLEHHHHHH”, “failed”.
